Test [1] addresses T1, EDIII-DV1 (Dengue virus serotype 1, UniProt P17763 581-673).
T1 construct: also called EDIII of DV1; envelope glycoprotein domain III of Dengue virus serotype 1
The test can be described thus: competition ELISA. For orientation: An ELISA detects its analyte on a solid surface through an enzyme-linked reagent.

Test [2] deals with T2, EDIII-DV2 (Dengue virus serotype 2, UniProt P14337 581-673).
T2 construct: also called EDIII of DV2; envelope glycoprotein domain III of Dengue virus serotype 2
The test can be described thus: competition ELISA.

The target of test [3] is T3, EDIII-DV3 (Dengue virus serotype 3, UniProt Q6YMS3 579-671).
T3 construct: also called EDIII of DV3; envelope glycoprotein domain III of Dengue virus serotype 3
The test can be described thus: competition ELISA.

Test [4] concerns the target T1, EDIII-DV1. Nature of the test: SPR.
The target of test [5] is T3, EDIII-DV3. The test can be described thus: SPR. In general terms: SPR reads the build-up and loss of mass on a sensor chip optically.
For test [6], the target named is T1, EDIII-DV1. The test can be described thus: SPR. The source holds these as a separate data set.
Test [7] deals with T2, EDIII-DV2. Nature of the test: SPR.
In test [8] the target is T3, EDIII-DV3. The test can be described thus: SPR. This is another data set of the same source.
The target in test [9] is T4, Dengue virus serotype 1 (DV1), envelope (E) glycoprotein on virus (Dengue virus serotype 1). Nature of the test: cell-based or functional assay.
Test [10] deals with T5, Dengue virus serotype 3 (DV3), envelope (E) glycoprotein on virus (Dengue virus serotype 3). Nature of the test: cell-based or functional assay.
Test [11] has as its target T6, Dengue virus serotype 2 (DV2), envelope (E) glycoprotein on virus (Dengue virus serotype 2). The test can be described thus: cell-based or functional assay.
Test [12] deals with T1, EDIII-DV1. The test can be described thus: competition ELISA, equilibrium in solution.
Test [13] addresses T2, EDIII-DV2. Nature of the test: competition ELISA, equilibrium in solution.
Test [14] has as its target T3, EDIII-DV3. Nature of the test: competition ELISA, equilibrium in solution.
In test [15] the target is T1, EDIII-DV1. Nature of the test: indirect ELISA, coated recombinant EDIII.
Test [16] concerns the target T7, EDIII-DV4 (Dengue virus serotype 4, UniProt P09866 580-672). Nature of the test: indirect ELISA, coated recombinant EDIII.
In test [17] the target is T2, EDIII-DV2. Nature of the test: indirect ELISA, coated recombinant EDIII.
Test [18] addresses T3, EDIII-DV3. Nature of the test: indirect ELISA, coated recombinant EDIII.
The target in test [19] is T7, EDIII-DV4. Nature of the test: competition ELISA, equilibrium in solution.
Test [20] addresses T7, EDIII-DV4. Nature of the test: calculated from KD, ΔG = RTln(KD) at 25° C.
Test [21] deals with T2, EDIII-DV2. Nature of the test: SPR. This is another data set of the same source.
The target in test [22] is T4, Dengue virus serotype 1 (DV1), envelope …. Nature of the test: cell-based or functional assay. This is another data set of the same source.
Test [23] addresses T5, Dengue virus serotype 3 (DV3), envelope …. Nature of the test: cell-based or functional assay. This is another data set of the same source.
Test [24] addresses T6, Dengue virus serotype 2 (DV2), envelope …. Nature of the test: cell-based or functional assay. The source holds these as a separate data set.
In test [25] the target is Dengue virus serotype 4 (DV4), envelope (E) glycoprotein on virus (Dengue virus serotype 4). Nature of the test: cell-based or functional assay.

Residue numbers refer to the chain shown, from its start. In names and notes the source's numbering stands.

B1: 4E11 WT (antibody, V domains shown)
VH: VKLLEQSGAELVKPGASVRLSCTASGFNIKDTYMSWVKQRPEQGLEWIGRIDPANGDTKYDPKFQGKATITADTSSNTAYLHLSSLTSGDTAVYYCSRGWEGFAYWGQGTLVTVSA
VL: ELVMTQTPASLAVSLGQRATISCRASENVDRYGNSFMHWYQQKAGQPPKLLIYRASNLESGIPARFSGSGSRTDFTLTINPVEADDVATYFCQRSNEVPWTFGGGTKLEIKR
notes: also called wt 4E11; WT 4E11
As usually defined, the Kd is the equilibrium constant for the complex coming apart. The koff is a measure of how fast the partners let go of each other. A higher koff goes with fast dissociation. A word on the kon: it is the second-order rate constant of association. As to B1, the Kd with EDIII-DV1 [1] came to 0.328 nM; in the test with EDIII-DV2 [2], 5.2 nM; with EDIII-DV3 [3], 21.8 nM; with EDIII-DV1 [4] it was 0.5 nM; with EDIII-DV3 [5] it was 7.58 nM; with EDIII-DV1 [12], 0.328 nM. Also, the dissociation constant Kd was 5.2 nM with EDIII-DV2 [13] and 21.8 nM in the test with EDIII-DV3 [14]. The koff is 0.000551 s⁻¹ in the test with EDIII-DV1 [6], 0.0123 s⁻¹ with EDIII-DV2 [7] and 0.0102 s⁻¹ with EDIII-DV3 [8]. For the same molecule, the association rate constant (kon) was 1.11e+06 M⁻¹ s⁻¹ with EDIII-DV1 [6], 1.98e+06 M⁻¹ s⁻¹ in the test with EDIII-DV2 [7] and 1.34e+06 M⁻¹ s⁻¹ with EDIII-DV3 [8]. Moreover, the “IC50 (read off the curve)” value is approximately 0.06 µg/mL in test [9], approximately 0.5 µg/mL in test [10] and approximately 0.03 µg/mL in [11].

B2: 4E11 VL Ser60Tyr single mutant (antibody, V domains shown)
VH: B1 VH
VL: B1 VL with S60Y
notes: also called S60Y
For the molecule B2, the binding result in the test with EDIII-DV1 [15], with EDIII-DV4 [16], with EDIII-DV2 [17] and in the test with EDIII-DV3 [18] was “binds” in each case.

B3: 4E11 VL-E59Q single mutant (antibody, V domains shown)
VH: B1 VH
VL: B1 VL with E59Q
In the test with EDIII-DV4 [19], B3 displayed a Kd of 11000 nM. Besides, in the test with EDIII-DV4 [20], the ΔG is -6.76 kcal/mol and the “ΔΔG (ΔGmutant - ΔGWT)” value was -0.77 kcal/mol. Further, in the test with EDIII-DV2 [17], the binding result is “binds”.

B4: 4E11 VL-R31K single mutant (antibody, V domains shown)
VH: B1 VH
VL: B1 VL with R31K
In the case of B4, the binding result with EDIII-DV2 [17] was “binds”.

B5: 4E11 VH Ala55Asp single mutant (antibody, V domains shown)
VH: B1 VH with A54D
VL: B1 VL
notes: also called A55D
As for B5, the binding result in the test with EDIII-DV1 [15], with EDIII-DV4 [16], in the test with EDIII-DV2 [17] and with EDIII-DV3 [18] was “binds” throughout.

B6: 4E11 VL-N57E single mutant (antibody, V domains shown)
VH: B1 VH
VL: B1 VL with N57E
On to B6, for which the dissociation constant Kd with EDIII-DV4 [19] came to 8410 nM. Besides, in the test with EDIII-DV4 [20], the ΔG was -6.92 kcal/mol and the “ΔΔG (ΔGmutant - ΔGWT)” value is -0.93 kcal/mol.

B7: 4E11 VH-A55E single mutant (antibody, V domains shown)
VH: B1 VH with A54E
VL: B1 VL
Turning to B7, binding with EDIII-DV4 [19] was put at a Kd of 4440 nM. In the test with EDIII-DV4 [20], the ΔG is -7.29 kcal/mol and the “ΔΔG (ΔGmutant - ΔGWT)” value is -1.31 kcal/mol.

B8: 4E11 VL Ser60Arg single mutant (antibody, V domains shown)
VH: B1 VH
VL: B1 VL with S60R
notes: also called S60R
As to B8, the binding result with EDIII-DV1 [15], in the test with EDIII-DV4 [16], in the test with EDIII-DV2 [17] and in the test with EDIII-DV3 [18] was “binds” each time.

B9: 4E11 VL-S60W single mutant (antibody, V domains shown)
VH: B1 VH
VL: B1 VL with S60W
With B9, the binding result in the test with EDIII-DV2 [17] was “binds”.

B10: 4E5A (antibody, V domains shown)
VH: B1 VH with A54E
VL: B1 VL with R31K, N57E, E59Q, S60W
notes: also called 4E11-5A; quintuple mutant antibody
B10 returned a Kd with EDIII-DV2 [21] of 0.7 nM. For the same molecule, the FRNT50 in [22] was 0.19 µg/mL; in [23], 0.77 µg/mL; in [24], 0.028 µg/mL; in test [25] it was 4 µg/mL.

B11: 4E11 VL Asn57Ser single mutant (antibody, V domains shown)
VH: B1 VH
VL: B1 VL with N57S
With B11, the binding result in the test with EDIII-DV1 [15], with EDIII-DV4 [16], with EDIII-DV2 [17] and with EDIII-DV3 [18] was “binds” in each case.

B12: 4E11 VL Glu59Asn single mutant (antibody, V domains shown)
VH: B1 VH
VL: B1 VL with E59N
notes: also called E59N
B12: the binding result in the test with EDIII-DV1 [15], with EDIII-DV4 [16], in the test with EDIII-DV2 [17] and in the test with EDIII-DV3 [18] was “binds” in each case.

(Values after patent US20200264176A1 (MIT, published 2020).)
